Results taken from the Human Domainome abundance scans (Beltran et al. 2025).
± gives the uncertainty stated by the source.

B1: Steroid hormone receptor ERR2, residues 100 to 176; numbered along this chain, O95718 (parent)
chain: KRLCLVCGDIASGYHYGVASCEACKAFFKRTIQGNIEYSCPATNECEITKRRRKSCQACRFMKCLKVGMLKEGVRLD

Variants of: B1
Test: abundance fitness (aPCA) (normalised: wild type 0, dead -1); higher = more abundant; growth selection in yeast, the domain comes from the species named
Details: Homo sapiens

Abundance fitness: each site, then its substitutions
Y38: E -0.586 ± 0.11; I -0.421 ± 0.36
E37: P -0.507 ± 0.14; M -0.654 ± 0.14; C -0.158 ± 0.1; I -0.341 ± 0.18; D -0.423 ± 0.12; G -0.122 ± 0.041; H -0.19 ± 0.14; K -0.532 ± 0.13; Y -0.745 ± 0.26; L -0.657 ± 0.09; F -0.851 ± 0.42; W -0.543 ± 0.079; Q -0.41 ± 0.1; T -0.796 ± 0.21; N -0.575 ± 0.21; R -0.371 ± 0.053
R30: A -0.312 ± 0.065; G -0.006 ± 0.037; M -0.355 ± 0.082; E 0.125 ± 0.049; D -0.255 ± 0.16; P -0.989 ± 0.26; N -0.381 ± 0.38; I -0.775 ± 0.24; L -0.466 ± 0.061; F -0.763 ± 0.19; Y -0.799 ± 0.23; W -0.121 ± 0.05; T -0.193 ± 0.087; H -0.357 ± 0.14; C -0.573 ± 0.12; Q 0.109 ± 0.057
K25: G 0.41 ± 0.029; F 0.194 ± 0.063; H 0.262 ± 0.062; P 0.278 ± 0.051; I 0.091 ± 0.063; L 0.224 ± 0.033; D 0.375 ± 0.049; A 0.445 ± 0.035; E 0.41 ± 0.037; S 0.222 ± 0.04; M 0.286 ± 0.048; V 0.344 ± 0.034; Y 0.273 ± 0.067; Q 0.317 ± 0.045; C 0.284 ± 0.051; T 0.146 ± 0.046; R 0.208 ± 0.031
I36: D -0.062 ± 0.077; R -0.26 ± 0.043; G -0.273 ± 0.041; P -0.182 ± 0.081; F -0.095 ± 0.11; Q -0.16 ± 0.064; W -0.231 ± 0.053; M -0.074 ± 0.056; C -0.037 ± 0.076; V 0.003 ± 0.044; N -0.185 ± 0.13; T -0.288 ± 0.078; L -0.162 ± 0.048; H -0.167 ± 0.11; Y -0.235 ± 0.09; K -0.129 ± 0.062; A -0.032 ± 0.048
Q33: W -0.411 ± 0.073; R -0.307 ± 0.047; H -0.229 ± 0.11; D -0.081 ± 0.082; K -0.212 ± 0.094; I -0.697 ± 0.22; V -0.148 ± 0.048; M -0.279 ± 0.087; S -0.252 ± 0.067; E -0.03 ± 0.06; F -0.577 ± 0.22; N -0.383 ± 0.13; G -0.165 ± 0.043; A -0.075 ± 0.054; C -0.114 ± 0.068; T -0.193 ± 0.089; Y -0.054 ± 0.14; L -0.146 ± 0.051
K29: M -0.064 ± 0.065; G 0.096 ± 0.034; Q 0.129 ± 0.054; A 0.18 ± 0.043; S 0.084 ± 0.045; I -0.481 ± 0.12; H -0.067 ± 0.1; F -0.132 ± 0.087; C -0.335 ± 0.11; T 0.215 ± 0.049; D -0.014 ± 0.072; Y -0.65 ± 0.25; R 0.085 ± 0.039; N -0.193 ± 0.11; V 0.079 ± 0.038; P -0.841 ± 0.16; E 0.217 ± 0.053
A42: D 0.045 ± 0.065; C -0.501 ± 0.1; E 0.027 ± 0.055
E22: W -0.142 ± 0.053; N 0.322 ± 0.068; I -0.459 ± 0.12; S -0.154 ± 0.05; V -0.131 ± 0.048; T -0.19 ± 0.061; K -0.443 ± 0.091; L -0.233 ± 0.046; H -0.091 ± 0.074; Q -0.092 ± 0.058; Y -0.152 ± 0.076; F -0.449 ± 0.12; P -0.188 ± 0.071
G34: Q 0.254 ± 0.057; N -0.058 ± 0.15; H -0.282 ± 0.12; M -0.041 ± 0.062; T -0.088 ± 0.063; F 0.144 ± 0.072; Y 0.075 ± 0.1; E 0.157 ± 0.051; R -0.033 ± 0.037; V -0.186 ± 0.046; A 0.135 ± 0.043; D 0.116 ± 0.092; W -0.08 ± 0.048; C -0.227 ± 0.078; P -0.904 ± 0.18; I -0.336 ± 0.2
C40: A -0.91 ± 0.12; S -0.632 ± 0.094; W -0.94 ± 0.12; Y -0.247 ± 0.19; E -0.726 ± 0.11; R -0.734 ± 0.074; M -0.742 ± 0.13; K -0.781 ± 0.17; G -0.711 ± 0.068; V -0.688 ± 0.082; P -0.684 ± 0.13; I -0.443 ± 0.17; F -0.876 ± 0.31; D -0.982 ± 0.37; Q -0.604 ± 0.12; N -0.586 ± 0.26
A23: R 0.166 ± 0.037; D 0.049 ± 0.1; H -0.16 ± 0.099; V -0.014 ± 0.046; F -0.538 ± 0.24; N -0.658 ± 0.21; K -0.03 ± 0.059; P 0.023 ± 0.063; T -0.376 ± 0.091; L -0.371 ± 0.057; Y -0.56 ± 0.18; I -0.806 ± 0.41; G 0.321 ± 0.035; E 0.094 ± 0.054; Q -0.039 ± 0.064; C 0.094 ± 0.067
